Measured values as given in patent US20220088146A1 (PALATIN TECHNOLOGIES, published 2022).
Numbered stars: 1 amine (or outer) side, 2 acyl side, 3 side chain; on linkers, the order of the positions; unused ones are H or OH. Bridge positions count the residues as written; N and C are the ends. Square brackets hold non-standard residues; d marks the D form. * marks the point of attachment. Cyclohexanecarbonyl = O=C(C1CCCCC1)*; Cyclohexylacetyl = O=C(CC1CCCCC1)*; Cyclopentylacetyl = O=C(CC1CCCC1)*; Cyclopropanecarbonyl = O=C(C1CC1)*; Hydrocinnamoyl = O=C(CCc1ccccc1)*; Suc = O=C(CCC(=O)[*:2])[*:1]; Heptanoyl = CCCCCCC(=O)*; Nle = CCCC[C@H](N)C(=O)O; Dab = NCC[C@H](N)C(=O)O; Dap = NC[C@H](N)C(=O)O; Hexanoyl = CCCCCC(=O)*; Pentanoyl = CCCCC(=O)*; PhAc = O=C(Cc1ccccc1)*; Butyryl = CCCC(=O)*

What was measured:
[1] = molecular target: T1, human melanocortin-1 receptor (human, UniProt Q01726 1-317); experiment: cell-based or functional assay
[2] = molecular target: T2, human melanocortin-4 receptor (human, UniProt P32245 1-332); experiment: [I125]-NDP-α-MSH competition, hMC4r HEK-293 membranes
T2 construct: whole, on cells; Ki assay used membrane homogenates of HEK-293 cells expressing recombinant hMC4r; also called MC4r; hMC4r

[3] = molecular target: T1, human melanocortin-1 receptor; experiment: [I125]-NDP-α-MSH competition, hMC1r HEK-293 membranes
melanocortin-2 receptor = melanocortin-2 receptor (UniProt Q01718 1-297); experiment: cell-based or functional assay
melanocortin-5 receptor = melanocortin-5 receptor (UniProt P33032 1-325); experiment: cell-based or functional assay
melanocortin-3 receptor = melanocortin-3 receptor (UniProt P41968 1-323); experiment: cell-based or functional assay
Chain of melanocortin-3 receptor (P41968 whole entry): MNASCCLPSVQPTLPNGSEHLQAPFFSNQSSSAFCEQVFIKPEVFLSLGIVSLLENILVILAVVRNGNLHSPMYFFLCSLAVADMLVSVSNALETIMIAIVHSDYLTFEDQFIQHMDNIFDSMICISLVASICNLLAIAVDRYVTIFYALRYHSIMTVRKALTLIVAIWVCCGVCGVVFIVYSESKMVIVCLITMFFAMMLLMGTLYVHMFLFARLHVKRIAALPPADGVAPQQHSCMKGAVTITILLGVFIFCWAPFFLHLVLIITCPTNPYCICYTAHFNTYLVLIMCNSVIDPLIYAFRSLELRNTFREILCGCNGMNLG

T2 sequence (P32245 whole entry): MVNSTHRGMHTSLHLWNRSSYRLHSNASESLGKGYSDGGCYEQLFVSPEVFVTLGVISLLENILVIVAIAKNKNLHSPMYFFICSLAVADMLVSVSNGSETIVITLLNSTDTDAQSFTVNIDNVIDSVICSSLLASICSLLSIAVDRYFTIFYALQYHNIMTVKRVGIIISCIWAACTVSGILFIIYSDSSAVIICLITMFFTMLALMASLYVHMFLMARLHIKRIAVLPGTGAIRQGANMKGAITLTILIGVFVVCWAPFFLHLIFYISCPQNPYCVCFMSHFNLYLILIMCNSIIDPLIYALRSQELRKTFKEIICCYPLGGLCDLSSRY
T1 sequence (Q01726 whole entry): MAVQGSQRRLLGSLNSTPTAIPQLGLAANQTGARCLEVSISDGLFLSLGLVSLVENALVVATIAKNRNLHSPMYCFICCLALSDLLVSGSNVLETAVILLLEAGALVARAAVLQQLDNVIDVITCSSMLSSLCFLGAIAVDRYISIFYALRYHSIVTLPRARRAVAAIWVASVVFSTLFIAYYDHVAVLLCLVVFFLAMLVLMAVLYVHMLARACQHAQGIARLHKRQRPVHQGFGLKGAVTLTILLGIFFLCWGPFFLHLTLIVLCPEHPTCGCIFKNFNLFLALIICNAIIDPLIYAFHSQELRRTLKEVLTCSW
Chain of melanocortin-2 receptor (Q01718 whole entry): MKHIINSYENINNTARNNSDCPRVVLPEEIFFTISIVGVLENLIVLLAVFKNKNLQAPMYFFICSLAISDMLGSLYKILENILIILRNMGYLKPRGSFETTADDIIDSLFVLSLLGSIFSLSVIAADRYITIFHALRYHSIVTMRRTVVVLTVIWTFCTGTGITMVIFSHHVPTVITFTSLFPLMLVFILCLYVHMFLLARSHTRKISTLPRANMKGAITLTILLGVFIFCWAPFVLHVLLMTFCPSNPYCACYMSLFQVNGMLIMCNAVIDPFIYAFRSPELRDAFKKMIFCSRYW
Chain of melanocortin-5 receptor (P33032 whole entry): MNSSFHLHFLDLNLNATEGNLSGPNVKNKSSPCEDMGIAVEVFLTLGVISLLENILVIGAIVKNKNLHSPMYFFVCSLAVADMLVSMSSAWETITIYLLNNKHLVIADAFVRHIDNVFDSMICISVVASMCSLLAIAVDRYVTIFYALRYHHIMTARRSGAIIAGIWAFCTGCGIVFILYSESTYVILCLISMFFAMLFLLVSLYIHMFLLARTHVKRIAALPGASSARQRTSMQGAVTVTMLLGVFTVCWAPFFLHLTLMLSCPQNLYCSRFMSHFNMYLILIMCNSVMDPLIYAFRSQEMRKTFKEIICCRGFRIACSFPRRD

Row | Binder | MC-1 Emax (average; cAMP HBL) [1] [%] | Ki [2] [nM] | also measured
1 | Hydrocinnamoyl-EH[dF]R[Dab]W-NH2 (lactam 1-5, also called 9.24) [phenyl propanoyl-cyclo(Glu-His-D-Phe-Arg-Dab)-Trp-NH2] | 83 | 285 | –
2 | Ac-FEH[dF]R[Dab]W-NH2 (lactam 2-6, also called 9.13) [Ac-Phe-cyclo(Glu-His-D-Phe-Arg-Dab)-Trp-NH2] | 75 | 510 | –
3 | Pentanoyl-EH[dF]R[Dab]W-NH2 (lactam 1-5, also called 9.16) [CH3-(CH2)3-C(═O)-cyclo(Glu-His-D-Phe-Arg-Dab)-Trp-NH2] | 89 | 365 | –
4 | Heptanoyl-EH[dF]R[Dab]W-NH2 (lactam 1-5, also called 9.18) [CH3-(CH2)5-C(═O)-cyclo(Glu-His-D-Phe-Arg-Dab)-Trp-NH2] | 87 | 100 | –
5 | [Suc]HFR[Dab]W-NH2 (lactam N-5; SMILES N=C(N)NCCC[C@@H]1NC(=O)[C@H](Cc2ccccc2)NC(=O)[C@H](Cc2c[nH]cn2)NC(=O)CCC(=O)NCC[C@@H](C(=O)N[C@@H](Cc2c[nH]c3ccccc23)C(N)=O)NC1=O, also called 9.14) [cyclo(Suc-His-Phe-Arg-Dab)-Trp-NH2] | 80 | 10000 | MC-1 EC50 (average; cAMP HBL) [1]: 31 nM; Ki [3]: 310 nM
6 | PhAc-EH[dF]R[Dab]W-NH2 (lactam 1-5, also called 9.23) [phenyl acetyl-cyclo(Glu-His-D-Phe-Arg-Dab)-Trp-NH2] | 82 | 205 | –
7 | Ac-[Nle]EH[dF]R[Dap]W-NH2 (lactam 2-6) [Ac-Nle-cyclo(Glu-His-D-Phe-Arg-Dap)-Trp-NH2] | – | – | Functional - CEREP (EC50; nM) (melanocortin-2 receptor): > 10000 nM; Functional - CEREP (EC50; nM) (melanocortin-5 receptor): > 10000 nM; Functional - CEREP (EC50; nM) (melanocortin-3 receptor): > 10000 nM
8 | Cyclopentylacetyl-EH[dF]R[Dab]W-NH2 (lactam 1-5, also called 9.21) [cyclopentyl acetyl-cyclo(Glu-His-D-Phe-Arg-Dab)-Trp-NH2] | 83 | 93 | –
9 | Butyryl-EH[dF]R[Dab]W-NH2 (lactam 1-5, also called 9.15) [CH3-(CH2)2-C(═O)-cyclo(Glu-His-D-Phe-Arg-Dab)-Trp-NH2] | 91 | 890 | –
10 | Ac-SYSMEHFRWGKPV-NH2 (ligand) [α-MSH (Ac-Ser-Tyr-Ser-Met-Glu-His-Phe-Arg-Trp-Gly-Lys-Pro-Val-NH2)] | – | – | Functional - CEREP (EC50; nM) (melanocortin-2 receptor): > 10000 nM
11 | Hexanoyl-EH[dF]R[Dab]W-NH2 (lactam 1-5, also called 9.17) [CH3-(CH2)4-C(═O)-cyclo(Glu-His-D-Phe-Arg-Dab)-Trp-NH2] | 90 | 110 | –
12 | Cyclohexanecarbonyl-EH[dF]R[Dab]W-NH2 (lactam 1-5, also called 9.20) [cyclo-hexanoyl-cyclo(Glu-His-D-Phe-Arg-Dab)-Trp-NH2] | 79 | 165 | –
13 | Ac-[Nle]EHFR[Dab]W-NH2 (lactam 2-6, also called 9.8) [Ac-Nle-cyclo(Glu-His-Phe-Arg-Dab)-Trp-NH2] | 88 | 10000 | –
14 | Cyclohexylacetyl-EH[dF]R[Dab]W-NH2 (lactam 1-5, also called 9.22) [cyclohexyl acetyl-cyclo(Glu-His-D-Phe-Arg-Dab)-Trp-NH2] | 85 | 63 | –
15 | Ac-[Nle]CH[dF]RCW-NH2 (disulfide 2-6, also called 9.5) [Ac-Nle-cyclo(Cys-His-D-Phe-Arg-Cys)-Trp-NH2] | 87 | 540 | –
16 | Cyclopropanecarbonyl-EH[dF]R[Dab]W-NH2 (lactam 1-5; SMILES N=C(N)NCCC[C@@H]1NC(=O)[C@@H](Cc2ccccc2)NC(=O)[C@H](Cc2c[nH]cn2)NC(=O)[C@@H](NC(=O)C2CC2)CCC(=O)NCC[C@@H](C(=O)N[C@@H](Cc2c[nH]c3ccccc23)C(N)=O)NC1=O, also called 9.19) [cyclo-propanoyl-cyclo(Glu-His-D-Phe-Arg-Dab)-Trp-NH2] | 83 | 640 | Ki [3]: 3 nM
17 | Ac-[Nle]EH[dF]RKW-NH2 (lactam 2-6, also called 9.1) [Ac-Nle-cyclo(Glu-His-D-Phe-Arg-Lys)-Trp-NH2] | 97 | 45 | –
